Results published in article doi:10.1101/2023.04.24.538129 (bioRxiv, 2023).
Substitutions are numbered along the chain they refer to. In names and notes the source's numbering stands.

Biological target: the molecule itself
Assay: Thioflavin-T fluorescence

B1: human dysferlin C2A domain with the pathogenic mutation W52R (C2A^W52R) (domain or fragment)
chain: MLRVFILYAENVHTPDTDISDAYCSAVFAGVKKRTKVIKNSVNPVWNEGFERDLKGIPLDQGSELHVVVKDHETMGRNRFLGEAKVPLREVLATPSLSASFNAPLLDTKKQPTGASLVLQVSYT
B1: binds.

B2: human dysferlin C2A domain with the pathogenic mutation V67D (C2A^V67D) (domain or fragment)
chain: B1 chain with R52W, V67D
B2: binds.
